Literature values as cited in PMC7088015.
Like-named read-outs stand apart in the source and are kept apart here.

Assays:
Settings in all cases: free dipeptide in solution (not further stated)
Cterm = system: Cterm
Nterm [1] = system: Nterm
[2] = system: His2 (position 1, -----H-----); test: not stated
Nterm [3] = test: not stated
[4] = system: Cterm (position 1, -----H-----); test: not stated

Row | Substance | pKa (Cterm) | pKa (Nterm [1]) | pKa [2] | pKa (Nterm [3]) | pKa [4]
1 | Anserine (beta-alanyl-1-methyl-L-histidine) (natural dipeptide of skeletal muscle of birds, fish and cattle (first identified in goose muscle); source of the titrated material not stated) | 2.64 | 9.49 | – | – | –
2 | Carnosine (beta-alanyl-L-histidine) (natural dipeptide of vertebrate skeletal muscle (discovered in cattle, Bos taurus); source of the titrated material not stated) | – | – | 6.83 | 9.66 | 2.77
